Source: paper PMC9943658 (Nucleic Acids Research, 2023)

Target: the molecule itself
Test: SEC

B1: His-T7-hnRNP C1 ΔBASIC (natural protein)
chain: MASNVTNKTDPRSMNSRVFIGNLNTLVVKKSDVEAIFSKYGKIVGCSVHKGFAFVQYVNERNARAAVAGEDGRMIAGQVLDINLAAEPKVNRGKAGVKRSAAEMYGSSFDLDYDFQRDYYDRMYSYPARVPPPPPIARALQAIKKELTQIKQKVDSLLENLEKIEKEQSKQAVEMKNDKSEEEQSSSSVKKDETNVKMESEGGADDSAEEGDLLDDDDNEDRGDDQLELIKDDEKEAEEGEDDRDSANGEDDS
stoichiometry N: 4

B2: His-T7-hnRNP C1 ΔRRMΔBASIC (natural protein)
chain: MASNVTNKTDPRSMNPKVNRGKAGVKRSAAEMYGSSFDLDYDFQRDYYDRMYSYPARVPPPPPIARALQAIKKELTQIKQKVDSLLENLEKIEKEQSKQAVEMKNDKSEEEQSSSSVKKDETNVKMESEGGADDSAEEGDLLDDDDNEDRGDDQLELIKDDEKEAEEGEDDRDSANGEDDS
stoichiometry N: 4

B3: His-T7-hnRNP C1 wild type (natural protein, UniProt P07910-2 1-293, looked up)
chain: MASNVTNKTDPRSMNSRVFIGNLNTLVVKKSDVEAIFSKYGKIVGCSVHKGFAFVQYVNERNARAAVAGEDGRMIAGQVLDINLAAEPKVNRGKAGVKRSAAEMYGSSFDLDYDFQRDYYDRMYSYPARVPPPPPIARAVVPSKRQRVSGNTSRRGKSGFNSKSGQRGSSKSGKLKGDDLQAIKKELTQIKQKVDSLLENLEKIEKEQSKQAVEMKNDKSEEEQSSSSVKKDETNVKMESEGGADDSAEEGDLLDDDDNEDRGDDQLELIKDDEKEAEEGEDDRDSANGEDDS
stoichiometry N: 4
